{
  "source": "paper PMC3347318",
  "molecular_target": "Sudan virus Boniface (SUDV-Bon) glycoprotein GP1,2, mucin-like domain and transmembrane domain delet (Sudan virus, variant Boniface) (UniProt Q66814)",
  "test": "crystal structure",
  "data": [
    {"substance": "Sudan virus Boniface (SUDV-Bon) glycoprotein GP1,2, mucin-like domain and transmembrane domain delet (from UniProt Q66814) (complex)", "values": [
      {"measurement": "stoichiometry N", "value": 3}
    ]}
  ]
}
